Test results taken from the RNAGym collection of RNA variant scans (doi:10.7554/elife.80360).

B1: HDV Ribozyme (parent)
chain: GGCCGGCAUGGUCCCAGCCUCCUCGCUGGCGCCGGCUGGGCAACAUUCCGAGGGGACCGUCCCCUCGGUAAUGGCGAAUGGGACCCA

Variants of: B1
Assay: self-cleavage, relative activity (ratio to wild type); higher = more cleavage; co-transcriptional

Variant	self-cleavage
GGCCCGCAUGGUCCCAGCCUCCUCGCUGGCGCCGGCUGGGCAACGUUCCGAGGGGACCGUCCCCUCGGUAAUGGCGAAUGGGACCCA [G5C A45G]	0.0875
GGCCCGCAUGGUCCCAGCCUCCUCGCUGGCGCCGGCUGGGCAACUUUCCGAGGGGACCGUCCCCUCGGUAAUGGCGAAUGGGACCCA [G5C A45U]	0.131
GGCCAGCAUGGUCCCAGCCUCCUCGCUGGCGCCGGCUGGGCAACAUUCCGAGGGGACCGUCCCCUCGGUAAUGGCGAAUGGUACCCA [G5A G82U]	0.0354
GGCCAGCAUGGUCCCAGCCUCCUCGCUGGCGCCGGCUGGGCAACAUUCCGAGGGGACCGUCCCCUCGGUAAUGGCGAAUGGAACCCA [G5A G82A]	0.0554
GGCCCGCAUGGUCCCAGCCUCCUCGCUGGCGCCGGCUGGGCAACAUUCCGAGGGGACCGUCCCCUCGGUCAUGGCGAAUGGGACCCA [G5C A70C]	0.158
GGCCCGCAUGGUCCCAGCCUCCUCGCUGGCGCCGGCUGGGCAACAUUCCGAGGGGACCGUCCCCUCGGUUAUGGCGAAUGGGACCCA [G5C A70U]	0
GGCCCGCAUGGUCCCAGCCUCCUCGCUGGCGCCGGCUGGGCAACAUUCCGAGGGGACCGUCCCCUCGGUGAUGGCGAAUGGGACCCA [G5C A70G]	0.158
GGCCCGCAUGGUCCCAGCCUCCUCGCUGGCGCCGGCUGGGCAACAUUCCGAGGGGACCGUCCCCUCGGUAAUGGCGGAUGGGACCCA [G5C A77G]	0.0475
GGCCCGCAUGGUCCCAGCCUCCUCGCUGGCGCCGGCUGGGCAACAUUCCGAGGGGACCGUCCCCUCGGUAAUGGCGCAUGGGACCCA [G5C A77C]	0
GGCCAGCAGGGUCCCAGCCUCCUCGCUGGCGCCGGCUGGGCAACAUUCCGAGGGGACCGUCCCCUCGGUAAUGGCGAAUGGGACCCA [G5A U9G]	0.111
GGCCAGCAUGGUCCCAGCCUCCUCGCUGGCGCCGGCUGGGCAACAUUCCGAGGGGACCGCCCCCUCGGUAAUGGCGAAUGGGACCCA [G5A U60C]	0.353
GGCCAGCAUGGUCCCAGCCUCCUCGCUGGCGCCGGCUGGGCAACAUUCCGAGGGGACCGUCCCCUCGGUAAUGGCGAAUGCGACCCA [G5A G81C]	0.0791
GGCCCGCAUGGUCCCAGCCUGCUCGCUGGCGCCGGCUGGGCAACAUUCCGAGGGGACCGUCCCCUCGGUAAUGGCGAAUGGGACCCA [G5C C21G]	0.125
GGCCCGCAUGGUCCCAGCCUUCUCGCUGGCGCCGGCUGGGCAACAUUCCGAGGGGACCGUCCCCUCGGUAAUGGCGAAUGGGACCCA [G5C C21U]	0.0554
GGCCAGCAUGGUCCCAGCCUCCUCGCUGGCGCCGGCUGGGCAACAUUCCGAGGGGACCGUCCCCUCGGUAAUGGCUAAUGGGACCCA [G5A G76U]	0.148
GGCCAGCAUGGUCCCAGCCUCCUCGCUGGCGCCGGCUGGGCAACAUUCCGAGGGGACCGUCCCCUCGGUAAUGGCGAAAGGGACCCA [G5A U79A]	0.192
GGCCAGCAUGGUCCCAGCCUCCUCGCUGGCGCCGGCUGGGCAACAUUCCGAGGGGACCGUCCCCGCGGUAAUGGCGAAUGGGACCCA [G5A U65G]	0
GGCCAGCAUGGUCCCAGCCUCCUCGCUGGCGCCGGCUGGGCAACAUUCCGAGGGGACCGUCCCCACGGUAAUGGCGAAUGGGACCCA [G5A U65A]	0.259
GGCCAGCAUGGUCCCAGCCUCCUCGCUGGCGCCGGCGGGGCAACAUUCCGAGGGGACCGUCCCCUCGGUAAUGGCGAAUGGGACCCA [G5A U37G]	0.0504
GGCCCGCAUGGUCCCAGCCUCCUCGCUGGCGCCGGCUGGGCAACAUUCCGAGGGGACCGUCCCCUCGGUAAUGGCGAAUGGGACCCG [G5C A87G]	0.124
GGCCCGCAUGGUCCCAGCCUCCUCGCUGGCGCCGGCUGGGCAACAUUCCGAGGGGACCGUCCCCUCGGUAUUGGCGAAUGGGACCCA [G5C A71U]	0.18
GGCCCGCAUGGUCCCAGCCUCCUCGCUGGCGCCGGCUGGGCAACAUUCCGAGGGGACCGUCCCCUCGGUACUGGCGAAUGGGACCCA [G5C A71C]	0.0639

Variant	self-cleavage
GGCCCGCAUGGUCCCAGCCUCCUCGCUGGCGCCGGCUGGGCAACAUUCCGAGGGGACCGUCCCCUCGGUAGUGGCGAAUGGGACCCA [G5C A71G]	0.0923
GGCCCGAAUGGUCCCAGCCUCCUCGCUGGCGCCGGCUGGGCAACAUUCCGAGGGGACCGUCCCCUCGGUAAUGGCGAAUGGGACCCA [G5C C7A]	0.119
GGCCCGUAUGGUCCCAGCCUCCUCGCUGGCGCCGGCUGGGCAACAUUCCGAGGGGACCGUCCCCUCGGUAAUGGCGAAUGGGACCCA [G5C C7U]	0.0462
GGCCCGGAUGGUCCCAGCCUCCUCGCUGGCGCCGGCUGGGCAACAUUCCGAGGGGACCGUCCCCUCGGUAAUGGCGAAUGGGACCCA [G5C C7G]	0
GGCCCGCAUGGUCCCAGACUCCUCGCUGGCGCCGGCUGGGCAACAUUCCGAGGGGACCGUCCCCUCGGUAAUGGCGAAUGGGACCCA [G5C C18A]	0.0639
GGCCCGCAUGGUCCCAGGCUCCUCGCUGGCGCCGGCUGGGCAACAUUCCGAGGGGACCGUCCCCUCGGUAAUGGCGAAUGGGACCCA [G5C C18G]	0.262
GGCCCGCAUGGUCCUAGCCUCCUCGCUGGCGCCGGCUGGGCAACAUUCCGAGGGGACCGUCCCCUCGGUAAUGGCGAAUGGGACCCA [G5C C15U]	0.356
GGCCCGCAUGGUCCAAGCCUCCUCGCUGGCGCCGGCUGGGCAACAUUCCGAGGGGACCGUCCCCUCGGUAAUGGCGAAUGGGACCCA [G5C C15A]	0.262
GGCCCGCAUGGUCCCAGCCUCCUCGCUGGCGCCGGCUGGGCCACAUUCCGAGGGGACCGUCCCCUCGGUAAUGGCGAAUGGGACCCA [G5C A42C]	0.115
GGCCCGCAUGGUCCCAGCCUCCUCGCUGGCGCCGGCUGGGCUACAUUCCGAGGGGACCGUCCCCUCGGUAAUGGCGAAUGGGACCCA [G5C A42U]	0
GGCCCGCAUGGUCCCAGCGUCCUCGCUGGCGCCGGCUGGGCAACAUUCCGAGGGGACCGUCCCCUCGGUAAUGGCGAAUGGGACCCA [G5C C19G]	0
GGCCCGCAUGGUCCCAGCAUCCUCGCUGGCGCCGGCUGGGCAACAUUCCGAGGGGACCGUCCCCUCGGUAAUGGCGAAUGGGACCCA [G5C C19A]	0
GGCCCGCAUGGUCCCAGCUUCCUCGCUGGCGCCGGCUGGGCAACAUUCCGAGGGGACCGUCCCCUCGGUAAUGGCGAAUGGGACCCA [G5C C19U]	0.0536
GGCCAGCAUGGUCCCAGCCUCCUCGCUGGCGCCGGCUGGGCAACAUCCCGAGGGGACCGUCCCCUCGGUAAUGGCGAAUGGGACCCA [G5A U47C]	0.0615
GGCCAGCAUGGUCCCAGCCCCCUCGCUGGCGCCGGCUGGGCAACAUUCCGAGGGGACCGUCCCCUCGGUAAUGGCGAAUGGGACCCA [G5A U20C]	0
GGCCCGCAUGGUCCCAGCCUCCUCGCUGGCGCCGGCUGGGCAACAUUCCGAGGGGACCGUCCCCUCGGUAAUGGCGACUGGGACCCA [G5C A78C]	0.0615
GGCCCGCAUGGUCCCAGCCUCCUCGCUGGCGCCGGCUGGGCAACAUUCCGAGGGGACCGUCCCCUCGGUAAUGGCGAGUGGGACCCA [G5C A78G]	0
GGCCCGCAUGGUCCCAGCCUCCUCGCUGGCGCCGGCUGGGCAGCAUUCCGAGGGGACCGUCCCCUCGGUAAUGGCGAAUGGGACCCA [G5C A43G]	0
GGCCCGCAUGGUCCCAGCCUCCUCGCUGGCGCCGGCUGGGCACCAUUCCGAGGGGACCGUCCCCUCGGUAAUGGCGAAUGGGACCCA [G5C A43C]	0
GGCCCGCAUGGUCCCAGCCUCCUCGCUGGCGCCGGCUGGGCAACAUUCCGUGGGGACCGUCCCCUCGGUAAUGGCGAAUGGGACCCA [G5C A51U]	0.298
GGCCCGCAUGGUCCCAGCCUCCUCGCUGGCGCCGGCUGGGCAACAUUCCGCGGGGACCGUCCCCUCGGUAAUGGCGAAUGGGACCCA [G5C A51C]	0.293
GGCCAGCAUGGUCCCAGCCUCCUCGCUGGCGCCGGCUGGGCAACAUUCCGAGGGGACCGUCCCCUCGGUAACGGCGAAUGGGACCCA [G5A U72C]	0.142

Variant	self-cleavage
GGCCAGCAUGGUCCCAGCCUCCUCGCUGGCGCCGGCUGGGCAACAUUCCGAGGGGACCGUCCCCUCGGUAAAGGCGAAUGGGACCCA [G5A U72A]	0.101
GGCCAGCAUGGUCCCAGCCUCCUCGCUGGCGCCGGCUGGGCAACAUUCCGAGGGGACCGUCCCCUCGGUAAGGGCGAAUGGGACCCA [G5A U72G]	0.147
GGCCCGCAUGGUUCCAGCCUCCUCGCUGGCGCCGGCUGGGCAACAUUCCGAGGGGACCGUCCCCUCGGUAAUGGCGAAUGGGACCCA [G5C C13U]	0.133
GGCCCGCAUGGUACCAGCCUCCUCGCUGGCGCCGGCUGGGCAACAUUCCGAGGGGACCGUCCCCUCGGUAAUGGCGAAUGGGACCCA [G5C C13A]	0.0755
GGCCAGCAUGGUCCCAGCCUCCUCGCUGGCGCCGGCUGGGCAACACUCCGAGGGGACCGUCCCCUCGGUAAUGGCGAAUGGGACCCA [G5A U46C]	0.185
GGCCAGCAUGGUCCCAGCCUCCUCGCUGGCGCCGGCUGGGCAACAAUCCGAGGGGACCGUCCCCUCGGUAAUGGCGAAUGGGACCCA [G5A U46A]	0
GGCCAGCAUGGUCCCAGCCUCCCCGCUGGCGCCGGCUGGGCAACAUUCCGAGGGGACCGUCCCCUCGGUAAUGGCGAAUGGGACCCA [G5A U23C]	0.0573
GGCCAGCAUGGUCCCAGCCUCCACGCUGGCGCCGGCUGGGCAACAUUCCGAGGGGACCGUCCCCUCGGUAAUGGCGAAUGGGACCCA [G5A U23A]	0.342
GGCCAGCAUGGUCCCAGCCUCCUCGCUGGCGCCGGCUGGGCAACAUUCCGAGGGGACCGUCCCCUCGGAAAUGGCGAAUGGGACCCA [G5A U69A]	0.0519
GGCCAGCAUGGUCCCAGCCUCCUCGCUGGCGCCGGCUGGGCAACAUUCCGAGGGGACCGUCCCCUCGGCAAUGGCGAAUGGGACCCA [G5A U69C]	0.208
GGCCCGCAUGGUCCCAGCCUCCUCGCUGGCGCCGGCUGGGCAACAUUCCGAGGGGACCGUCCCCUCGGUAAUGGCGAAUGGGCCCCA [G5C A83C]	0
GGCCCGCAUGGUCCCAGCCUCCUCGCUGGCGCCGGCUGGGCAACAUUCCGAGGGGACCGUCCCCUCGGUAAUGGCGAAUGGGGCCCA [G5C A83G]	0.0519
GGCCAGCAUGGUCCCAGCCUCCUCGCCGGCGCCGGCUGGGCAACAUUCCGAGGGGACCGUCCCCUCGGUAAUGGCGAAUGGGACCCA [G5A U27C]	0.0594
GGCCAGCAUGGUCCCAGCCUCCUCGCGGGCGCCGGCUGGGCAACAUUCCGAGGGGACCGUCCCCUCGGUAAUGGCGAAUGGGACCCA [G5A U27G]	0.217
GGCCAGCAUGGUCCCAGCCUCCUCGCAGGCGCCGGCUGGGCAACAUUCCGAGGGGACCGUCCCCUCGGUAAUGGCGAAUGGGACCCA [G5A U27A]	0.504
GGCCAGCAUGGUCCCAGCCUCCUCGCUGGCGCCGGCUGGGCAACAUUCCGAGGGGACCGUCCCCUCGGUAAUGGCGAAUCGGACCCA [G5A G80C]	0.0563
GGCCCGCAUGGUCGCAGCCUCCUCGCUGGCGCCGGCUGGGCAACAUUCCGAGGGGACCGUCCCCUCGGUAAUGGCGAAUGGGACCCA [G5C C14G]	0.111
GGCCAGCAUGGGCCCAGCCUCCUCGCUGGCGCCGGCUGGGCAACAUUCCGAGGGGACCGUCCCCUCGGUAAUGGCGAAUGGGACCCA [G5A U12G]	0.145
GGCCAGCAUGGACCCAGCCUCCUCGCUGGCGCCGGCUGGGCAACAUUCCGAGGGGACCGUCCCCUCGGUAAUGGCGAAUGGGACCCA [G5A U12A]	0
GGCCAGCAUGGCCCCAGCCUCCUCGCUGGCGCCGGCUGGGCAACAUUCCGAGGGGACCGUCCCCUCGGUAAUGGCGAAUGGGACCCA [G5A U12C]	0.0615
